Test results reported in doi:10.1101/2020.10.02.323899.

Assays:
[1] = target: Xenopus cyclase-associated protein 1 (Xenopus laevis (endogenous in oocytes)); assay: SEC-MALS + AUC
[2] = target: actin from Xenopus laevis oocytes (Xenopus laevis (endogenous in oocytes)) (UniProt O93400); assay: SEC-MALS + AUC

stoichiometry N (XCAP1 molecules in the complex) [1]: 4
stoichiometry N (XCAP1 per actin (4:4)) [2]: 1
Substance: Xenopus cyclase-associated protein 1 (natural protein)
